Data reported in patent US7531500B2, “Preventing airway mucus production by administration of EGF-R antagonists” (The Regents of the University of California, priority 1998, dated 2009).

How the values were obtained:
NCI-H292 cells = assay: Immunoassay of MUC5AC protein in NCI-H292 cells (Example 2); format: cell-based, human
Experimental: Cell Culture. NCI-H292 cells, a human pulmonary mucoepidermoid carcinoma cell line, were grown in RPMI 1640 medium containing 10% fetal bovine serum, penicillin (100 U/ml), streptomycin (100 μg/ml) and Hepes (25 mM) at 37° C. in a humidified 5% CO2, water-jacketed incubator. Either 6-well culture plates or 8-chamber slides were used to culture the cells. […] The cells were then washed and incubated with fresh medium alone. Experiments were terminated at preselected times (for mRNA, 6 h and 12 h; for protein, 24 h). As controls, cells were incubated with medium alone for same time periods. […] In inhibition studies with blocking antibodies to EGF-R ligands, the supernatants were pretreated with anti-TGFα antibody (Calbiochem) or anti-EGF antibody for 30 min and then added to NCI-H292 cells. The role of oxygen free radicals was examined using scavengers of oxygen free radical DMSO (1%, Sigma), 1,3-dimethyl-2-thiourea (DMTU, 50 mM, Sigma), or superoxide dismutase (SOD, 300 U/ml, Sigma).
Preparation of Cigarette Smoke Solution. Research cigarettes (code2R1, produced for the University of Kentucky Tobacco and Health Research Foundation) were used in the study. Cigarette smoke solution was prepared as previously described (Dusser et al. (1989) J. Clin. Invest. 84:900-906). In brief, cigarette smoke was withdrawn into a polypropylene syringe (35 ml) at a rate of one puff/min (10 times) and bubbled slowly into 20 ml of RPM11640 containing 50 mM Hepes buffer. The smoke solution was then titrated to pH 7,4 and used immediately after preparation.
Immunoassay of MUC5AC Protein. MUC5AC protein was measured as described above. In brief, cell lysates were prepared with PBS at multiple dilutions, and 50 μl of each sample was incubated with bicarbonate-carbonate buffer (50 μl) at 40° C. in a 96-well plate (Maxisorp Nunc, Fisher Scientific, Santa Clara, Calif.), until dry. Plates were washed three times with PBS and blocked with 2% BSA (fraction V, Sigma) for 1 h at room temperature. Plates were again washed three times with PBS and then incubated with 50 μl of mouse monoclonal MUC5AC antibody (1:100) that was diluted with PBS containing 0.05% Tween 20. After 1 h, the wells were washed three times with PBS, and 100 μl horseradish peroxidase-goat anti-mouse IgG conjugate (1:10,000, Sigma) was dispensed into each well. After 1 h, plates were washed three times with PBS. Color reaction was developed with TMB peroxidase solution (Kirkegaard & Perry Laboratories, Gaithersburg, Md.) and stopped with 2N H2SO4. Absorbance was read at 450 nm.

sensitized rats = assay: Goblet cell production in ovalbumin-sensitized rats (asthma model); format: in vivo, rat; conditions: for Goblet cells in tracheal epithelium: counted over 2 mm basal lamina, 5 rats
Experimental: Sensitization. Rats were sensitized on days 0 and 10 with intraperitoneal injections of ovalbumin (10 mg, grade V; Sigma, St. Louis, Mo.), complexed with 100 mg of aluminum hydroxide in 0.5 ml of sterile saline, Rats then rested for 10 days. On day 20, ovalbumin was delivered directly into the trachea; animals were challenged with 100 μl of 0.1% ovalbumin in saline by intratracheal instillation three times (days 20, 22 and 24). Rats were euthanized either without challenge (day 20), or 48 h after the third challenge (day 26). This procedure induced goblet cell metaplasia. To block the goblet cell hyperplasia, sensitized rats were pretreated with an EGF-R tyrosine kinase inhibitor, BIBX1522. On days of ovalbumin challenge (days 20, 22 and 24), sensitized rats were pretreated with BIBX1 522 (10 mg/kg, i.p., 1 h before the challenge) and then BIBX1522 was also instilled into the trachea together with ovalbumin (BIBX1522, 10^−5M, 100 μl). BIBX1522 was also injected i.p. every 24 h until the day before the rats were euthanized. After the animals were euthanized, the trachea was removed 48 h after the third challenge.
Tissue preparation. At preselected times during anesthesia, the systemic circulation was perfused with 1% paraformaldehyde in DEPC-treated PBS at a pressure of 120 mmHg. The trachea was then removed and placed in 4% paraformaldehyde for 24 h. After fixation, trachea and lungs were embedded in either JB-4 plus monomer solution A for cell analysis or O.C.T. compound (Sakura Finetek U.S.A., Inc., Torrance, Calif.) for immunohistochemistry and in situ hybridization. The embedded tissues were cut as cross sections ([…] thick) and placed on slides.
Cell analysis. We counted the total number of epithelial cells by counting epithelial cell nuclei over 2 mm of the basal lamina with an oil immersion objective lens (×1000 magnification). The linear length of the basal lamina under each analyzed region of epithelium was determined by tracing the contour of the digitized image of the basal lamina. After instillation of stimuli, “developing” goblet cells form. These cells have Alcian blue/PAS-positive granules, but the size of granules is small, and the number of cytoplasmic granules is few. We call these “developing” goblet cells “pre-goblet cells”, a stage before cells become mature goblet cells. Goblet cells are tall, cuboidal, goblet to low columnar in shape, with abundant Alcian blue/PAS-stained granules filling most of the cytoplasm between the nucleus and the luminal surface. Pre-goblet cells are defined as cells with smaller mucus-stained areas (<1/3 height in epithelium from basement membrane to luminal surface) or with sparsely and lightly Alcian blue/PAS-stained, small granules. Ciliated cells are recognized by their ciliated borders, lightly stained cytoplasm, and large round nuclei. Non-granulated secretory cells are columnar in shape and extend from the lumen to the basal lamina. The cytoplasm stains light pink color, and a few tiny PAS-positive and Alcian blue-negative granules are observed in the cytoplasm. Basal cells are small flattened cells with a large nucleus, located just above the basal lamina but not reaching the airway lumen.
Quantification of goblet cell production. Goblet cell production, was determined by the volume density of Alcian blue/PAS-stained mucosubstances on the mucosal surface epithelium using a semi-automatic imaging system described elsewhere (Weber et al. (1984) Science 224:294-297). We measured the Alcian blue/PAS-positive stained area and the total epithelial area and expressed the data as the percentage of the total area stained by Alcian blue-PAS. The analysis was performed with the public domain NIH Image program (developed at the U.S. National Institute of Health and available from the Internet by anonymous FTP from zippy.nimh.gov or on floppy disk from the National Technical Information Service, Springfield, Va., part number PB95-500195GEI).

## CNC(=S)NC [DMTU, 1,3-dimethyl-2-thiourea]
NCI-H292 cells; DMSO 1%, DMTU 50 mM, SOD 300 U/ml
  MUC5AC synthesis by supernatant of activated neutrophils, cigarette smoke and H2O2: significantly inhibited

## IL-8: recombinant human IL-8 (Genzyme)
NCI-H292 cells; 1 h incubation, protein at 24 h, IL-8 10^-8 M, fMLP 10^-8 M, TNFα 20 ng/ml
  MUC5AC synthesis, stimulus alone without neutrophils: no effect

B1: Ova: ovalbumin, grade V (Sigma), used to sensitize and challenge rats (protein, UniProt P01012 2-386, looked up)
Ovalbumin: GSIGAASMEFCFDVFKELKVHHANENIFYCPIAIMSALAMVYLGAKDSTRTQINKVVRFDKLPGFGDSIEAQCGTSVNVHSSLRDILNQITKPNDVYSFSLASRLYAEERYPILPEYLQCVKELYRGGLEPINFQTAADQARELINSWVESQTNGIIRNVLQPSSVDSQTAMVLVNAIVFKGLWEKAFKDEDTQAMPFRVTEQESKPVQMMYQIGLFRVASMASEKMKILELPFASGTMSMLVLLPDEVSGLEQLESIINFEKLTEWTSSNVMEERKIKVYLPRMKMEEKYNLTSVLMAMGITDVFSSSANLSGISSAESLKISQAVHAAHAEINEAGREVVGSAEAGVDAASVSEEFRADHPFLFCIKHIATNAVLFFGRCVSP
Sensitized rats; Ova i.p. + i.t.
  % of AB/PAS-stained area: 38.7 ± 6.2 %
  Basal cells in tracheal epithelium: 59.8 ± 2.9
  Ciliated cells in tracheal epithelium: 52.4 ± 7.1
  Indeterminate cells in tracheal epithelium: 2.6 ± 0.5
  Pre-goblet cells in tracheal epithelium: 36.0 ± 6.3
  Secretory cells in tracheal epithelium: 49.8 ± 4.2
  Total cells in tracheal epithelium: 238.8 ± 4.4
Sensitized rats; Ova i.p. only
  % of AB/PAS-stained area: 7.8 ± 2.9%
  Basal cells in tracheal epithelium: 60.2 ± 3.4
  Ciliated cells in tracheal epithelium: 56.4 ± 3.8
  Indeterminate cells in tracheal epithelium: 1.4 ± 0.2
  Pre-goblet cells in tracheal epithelium: 13.8 ± 1.4
  Secretory cells in tracheal epithelium: 67.6 ± 7.0
  Total cells in tracheal epithelium: 204.8 ± 6.6
Sensitized rats; Ova sensitization i.p. + i.t.
  Goblet cells in tracheal epithelium: 38.2 ± 6.3
Sensitized rats; Ova sensitization i.p. only
  Goblet cells in tracheal epithelium: 5.4 ± 1.5
